The source of these data is patent US9226950B2, “Method and composition for treating diabetes mellitus” (National Dong Hwa University, priority 2013, dated 2016).

Assay [1] concerns the target T1, Insr (Rattus norvegicus, UniProt P15127).
T1 construct: L6 cells were fully differentiated with α-MEM supplemented with 2% FBS for 5 days to myotubes; endogenous in cells; host or cells: L6 myoblasts differentiated to myotubes
Briefly: Phosphorylation of insulin receptors (Tyr1158/Tyr1162/Tyr1163) in L6 cells, Western blot. The assay is classed as cell-based. The following applies: 10 μM insulin (Ins) alone, 5 min, FIG. 1(a). How it is done: (§1) […] muscle myoblast cells (L6) was a generous gift from Professor Hitoshi Ashida's Lab. (Kobe University, Kobe, Japan). The cells were grown and maintained in α-minimal essential medium (α-MEM, 12000022, GIBCO, CA, USA) containing 10% fetal bovine serum (FBS, GIBCO) and 1% penicillin streptomycin (GIBCO) in a cell culture incubator with 5% CO2 at 37° C. Prior to the following experiments, the cells were seeded and cultured at a density of 8×10^3 cells per well in 96-well plates or 2.5×10^5 cells per well in 6-well plates. After the myoblasts achieved 80% confluence, the cells were incubated for 5 days in the α-MEM supplemented with 2% FBS to induce differentiation to myotubes.
L6 cells were fully differentiated with α-MEM supplemented with 2% FBS for 5 days to myotubes. The cells were washed twice with Phosphate Buffered Saline (PBS) containing 0.1% BSA and subsequently incubated α-MEM containing 0.25% BSA with or without 100 nM of S961, and treated with or without 100 μM of Tetracosanol for 90 min. Then, the cells were treated with or without 10 μM of insulin for 5 min. […] The levels of the proteins including phospho-Insulin receptors (Tyr1158/Tyr1162/Tyr1163) and Insulin receptor (Cell Signaling, Boston, Mass., USA) were detected and evaluated by Western blot with primary antibody.
The cells after treatments were collected and washed twice in cold KRH buffer, and then lysed in ice-cold RIPA buffer incubation at 4° C. for 60 min. After centrifugation at 12,000×g for 30 min at 4° C., the supernatant was kept and quantified by Bradford protein assay (Bio-Rad, Hercules, Calif., USA). […] The signals were monitored using Western Lightning™ Plus-ECL (Perkin Elmer Life Sciences) and the PVDF membrane was exposed to Luminescent image analyzer (LAS)-3000 (Fujifilm, Minato, Tokyo, Japan). Acquired data were analyzed and compared the difference among treatments. […]
In general terms: Immunoblotting shows a protein as a band on a membrane.

Assay [2] has as its system AKT. Briefly: Phosphorylation of AKT on Thr308 in L6 cells, Western blot. It is filed as cell-based, rat. The settings on record: 10 μM insulin (Ins) alone, 30 min, FIG. 1(b). As for the experimental part:
as §1
The L6 cells were fully differentiated with α-MEM supplemented with 2% FBS for 5 days to myotubes. The cells were washed twice with PBS containing 0.1% BSA and subsequently incubated α-MEM containing 0.25% BSA with or without 100 nM of S961, and then treated with or without 100 μM of Tetracosanol for 90 min. Then, the cells were treated with or without 10 μM of insulin for 30 min. Finally, the cells were collected and washed twice in KRH buffer, then lysed in ice-cold RIPA buffer for 60 min. After centrifugation at 12,000×g for 30 min. at 4° C., the supernatant was kept at −80° C. until use. The levels of the proteins including phospho-AKT (Thr308), AKT, phospho-AMPK (Thr172), and AMPK (Cell Signaling) were detected and evaluated by Western blot with primary antibody.
The cells after treatments were collected and washed twice in cold KRH buffer, and then lysed in ice-cold RIPA buffer incubation at 4° C. for 60 min. After centrifugation at 12,000×g for 30 min at 4° C., the supernatant was kept and quantified by Bradford protein assay (Bio-Rad, Hercules, Calif., USA). The proteins were separated using sodium dodecyl sulfate polyacrylamide gel electrophoresis (SDS-PAGE) and subsequently transferred to PVDF (Perkin Elmer Life Sciences, Boston, Mass., USA) membrane. […] The signals were monitored using Western Lightning™ Plus-ECL (Perkin Elmer Life Sciences) and the PVDF membrane was exposed to Luminescent image analyzer (LAS)-3000 (Fujifilm, Minato, Tokyo, Japan). Acquired data were analyzed and compared the difference among treatments.
The differentiated L6 cells were incubated with 100 μM of tetracosanol (Tet) at 37° C. for 90 min, and then treated 10 μM of insulin (Ins) at 37° C. for 5 or 30 min. The cell lysates were separated by SDS-PAGE and blotted 5 min for phospho-Insr on Tyr1158, 1162, and 1163 (Insr, 100 kDa), and phospho-AKT on Thr308 protein level was measured at 30 min in Western blot analysis.

T1 sequence (P15127 27-759 limits assumed): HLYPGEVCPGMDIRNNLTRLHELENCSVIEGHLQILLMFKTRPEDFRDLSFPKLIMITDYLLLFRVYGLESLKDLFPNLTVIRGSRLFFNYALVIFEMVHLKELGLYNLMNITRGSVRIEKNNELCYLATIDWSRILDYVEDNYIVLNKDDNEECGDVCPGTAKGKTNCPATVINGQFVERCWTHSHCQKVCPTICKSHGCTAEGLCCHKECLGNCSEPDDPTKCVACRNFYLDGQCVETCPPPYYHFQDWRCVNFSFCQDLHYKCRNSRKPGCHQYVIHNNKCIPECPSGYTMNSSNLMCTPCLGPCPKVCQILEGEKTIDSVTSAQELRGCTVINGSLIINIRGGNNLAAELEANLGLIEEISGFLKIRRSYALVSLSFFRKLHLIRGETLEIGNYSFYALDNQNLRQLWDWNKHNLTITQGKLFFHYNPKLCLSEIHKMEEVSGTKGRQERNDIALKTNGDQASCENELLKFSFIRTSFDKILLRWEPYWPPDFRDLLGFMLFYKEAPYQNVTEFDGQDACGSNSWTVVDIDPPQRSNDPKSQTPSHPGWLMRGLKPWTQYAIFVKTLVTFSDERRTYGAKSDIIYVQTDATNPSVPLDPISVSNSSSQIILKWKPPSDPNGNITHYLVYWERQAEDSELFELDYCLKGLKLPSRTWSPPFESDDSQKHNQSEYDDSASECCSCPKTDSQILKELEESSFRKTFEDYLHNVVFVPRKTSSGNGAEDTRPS
T1 sequence (P15127 764-1383 limits assumed): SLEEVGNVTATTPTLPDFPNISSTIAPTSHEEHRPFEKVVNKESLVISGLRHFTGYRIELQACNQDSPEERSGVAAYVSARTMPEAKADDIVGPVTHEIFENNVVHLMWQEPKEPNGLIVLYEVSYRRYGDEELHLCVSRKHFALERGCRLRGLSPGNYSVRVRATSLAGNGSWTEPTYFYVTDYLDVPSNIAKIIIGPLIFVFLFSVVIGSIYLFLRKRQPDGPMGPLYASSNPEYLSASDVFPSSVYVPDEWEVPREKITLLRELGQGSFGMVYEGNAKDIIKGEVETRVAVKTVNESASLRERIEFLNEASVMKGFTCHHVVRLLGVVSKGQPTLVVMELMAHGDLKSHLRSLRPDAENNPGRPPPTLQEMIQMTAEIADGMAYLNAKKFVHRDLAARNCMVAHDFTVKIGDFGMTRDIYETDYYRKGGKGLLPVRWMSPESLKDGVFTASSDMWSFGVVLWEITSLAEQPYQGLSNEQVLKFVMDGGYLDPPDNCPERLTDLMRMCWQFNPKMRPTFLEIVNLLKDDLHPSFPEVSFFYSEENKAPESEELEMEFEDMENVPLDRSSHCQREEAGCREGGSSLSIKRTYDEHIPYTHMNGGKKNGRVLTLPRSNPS

As to “insulin: Insulin purchased from Novo-Nordisk [reference compound]”, the “phosphorylation of phospho-Insr on Tyr1158, 1162, and 1163” value in assay [1] was “tended to be enhanced”. Besides, the “phospho-AKT on Thr 308” value in assay [2] was “induced the phospho-AKT on Thr 308”.
